Test in all cases: filter
What all share (settings): J = PPdU at every J; SB18T0.01 + 1 mM DTT, 37 C

Data set [1] has as its target T1, RIG-I ΔCARDs (aa 229-925) (Homo sapiens) (UniProt O95786).
T1 sequence: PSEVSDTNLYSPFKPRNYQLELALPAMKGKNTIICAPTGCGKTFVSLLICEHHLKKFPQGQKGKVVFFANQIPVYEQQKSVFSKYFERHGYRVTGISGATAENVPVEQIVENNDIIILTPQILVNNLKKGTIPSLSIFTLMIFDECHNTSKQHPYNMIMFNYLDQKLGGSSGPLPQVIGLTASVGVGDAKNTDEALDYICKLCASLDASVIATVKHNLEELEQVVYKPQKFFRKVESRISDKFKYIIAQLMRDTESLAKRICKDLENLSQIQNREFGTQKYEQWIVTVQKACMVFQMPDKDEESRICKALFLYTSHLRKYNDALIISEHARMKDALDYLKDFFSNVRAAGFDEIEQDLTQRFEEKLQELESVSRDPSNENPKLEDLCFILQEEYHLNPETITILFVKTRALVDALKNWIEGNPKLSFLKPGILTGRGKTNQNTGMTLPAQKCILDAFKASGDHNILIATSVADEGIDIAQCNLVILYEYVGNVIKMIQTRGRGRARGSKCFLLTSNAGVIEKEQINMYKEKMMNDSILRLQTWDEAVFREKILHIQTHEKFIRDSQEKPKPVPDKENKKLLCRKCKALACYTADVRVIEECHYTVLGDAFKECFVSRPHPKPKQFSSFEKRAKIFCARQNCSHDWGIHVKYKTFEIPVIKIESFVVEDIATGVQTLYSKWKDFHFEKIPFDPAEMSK

The target of data set [2] is T2, RIG-I K858A (Homo sapiens) (UniProt O95786).
T2 sequence: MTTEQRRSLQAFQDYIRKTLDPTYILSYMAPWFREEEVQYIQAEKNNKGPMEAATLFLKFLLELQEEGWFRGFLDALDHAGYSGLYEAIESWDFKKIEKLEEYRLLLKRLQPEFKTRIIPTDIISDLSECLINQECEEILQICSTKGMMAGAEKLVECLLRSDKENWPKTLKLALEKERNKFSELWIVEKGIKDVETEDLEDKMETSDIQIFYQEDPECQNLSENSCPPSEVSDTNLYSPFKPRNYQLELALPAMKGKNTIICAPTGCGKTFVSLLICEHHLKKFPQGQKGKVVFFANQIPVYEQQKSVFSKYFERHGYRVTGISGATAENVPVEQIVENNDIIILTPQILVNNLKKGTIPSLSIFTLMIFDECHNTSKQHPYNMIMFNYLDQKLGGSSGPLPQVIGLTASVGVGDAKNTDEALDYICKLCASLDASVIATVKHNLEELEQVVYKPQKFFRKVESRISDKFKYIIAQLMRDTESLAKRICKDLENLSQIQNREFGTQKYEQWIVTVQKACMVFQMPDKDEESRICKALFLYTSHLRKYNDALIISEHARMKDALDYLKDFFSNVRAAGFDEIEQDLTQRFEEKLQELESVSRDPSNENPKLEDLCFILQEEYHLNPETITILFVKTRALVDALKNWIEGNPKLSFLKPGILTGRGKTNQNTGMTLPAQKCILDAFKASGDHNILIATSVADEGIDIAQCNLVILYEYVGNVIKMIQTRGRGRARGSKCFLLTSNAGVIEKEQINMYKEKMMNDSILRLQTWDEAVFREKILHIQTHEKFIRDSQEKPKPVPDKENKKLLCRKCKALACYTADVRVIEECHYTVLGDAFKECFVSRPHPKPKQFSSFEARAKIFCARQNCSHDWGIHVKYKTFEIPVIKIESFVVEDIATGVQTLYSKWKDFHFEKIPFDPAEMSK

Data set [3] concerns the target T3, RIG-I D872A (Homo sapiens) (UniProt O95786).
T3 sequence: T2 sequence with A858K, D872A

Numbering of substitutions follows the chain as printed.

For “ATCTCTGTGTCATGTGTTTTAATGTCAGTTTAATGATGAGG [14832-55_8]”, the results for the Kd in data set [1], in data set [2] and in data set [3] were 0.013 nM, 2.9 nM and 0.61 nM, respectively.

A word on the Kd: it is the constant that tells how readily two partners part at equilibrium.

The values are drawn from patent publication US20220333113.
